Test results published in article PMC9770967, “Native holdup (nHU) to measure binding affinities from cell extracts” (Science Advances, 2022).

System: full-length SNX27
Experiment: nHU-WB titration, full-length SNX27 bait, total Jurkat extracts
Assay type: binding
Settings: partial activity model (Eq. 4)
Description: The empty His6-AviTag-MBP-TEV vector was used to produce biotinylated MBP for control experiments. Proteins were coexpressed with BirA biotin ligase (PET21a-BirA, Addgene, no. 20857) in Escherichia coli BL21(DE3) cells. At isopropyl-β-D-thiogalactopyranoside (IPTG) induction (1 mM IPTG at 18°C overnight), 50 μM biotin was added to the media. […] Lysates were frozen at -20°C before further purification steps. Lysates were sonicated and centrifuged for clarification. Expressed proteins were captured on in-house prepacked Ni-IDA (Protino Ni-IDA Resin, Macherey-Nagel, Duren, Germany) columns and were washed with at least 10 column volumes of cold wash buffer [50 mM tris (pH 7.5), 150 mM NaCl, and 2 mM β-mercaptoethanol] before elution with 250 mM imidazole. The Ni elution was collected directly on a preequilibrated amylose column (amylose high flow resin, New England Biolabs, Ipswich, MA). […] The concentration of proteins was determined by their ultraviolet absorption at 280 nm before aliquots were snap-frozen in liquid nitrogen and stored at -80°C. […] To saturate streptavidin resin with biotinylated proteins, 50 μl of streptavidin resin (Streptavidin Sepharose High Performance, Cytiva) was mixed with biotinylated MBP or MBP-PDZ at 40 to 50 μM concentration in 20× resin volume for 60 min. […] Last, resins were washed two times (10 resin volume, holdup buffer). […]

B1: full-length SLC16A1: monocarboxylate transporter 1, endogenous full-length prey (protein, UniProt P53985 1-500, looked up)
chain: MPPAVGGPVGYTPPDGGWGWAVVIGAFISIGFSYAFPKSITVFFKEIEGIFHATTSEVSWISSIMLAVMYGGGPISSILVNKYGSRIVMIVGGCLSGCGLIAASFCNTVQQLYVCIGVIGGLGLAFNLNPALTMIGKYFYKRRPLANGLAMAGSPVFLCTLAPLNQVFFGIFGWRGSFLILGGLLLNCCVAGALMRPIGPKPTKAGKDKSKASLEKAGKSGVKKDLHDANTDLIGRHPKQEKRSVFQTINQFLDLTLFTHRGFLLYLSGNVIMFFGLFAPLVFLSSYGKSQHYSSEKSAFLLSILAFVDMVARPSMGLVANTKPIRPRIQYFFAASVVANGVCHMLAPLSTTYVGFCVYAGFFGFAFGWLSSVLFETLMDLVGPQRFSSAVGLVTIVECCPVLLGPPLLGRLNDMYGDYKYTYWACGVVLIISGIYLFIGMGINYRLLAKEQKANEQKKESKEEETSIDVAGKPNEVTKAAESPDQKDTDGGPKEEESPV
modifications: full-length
notes: monocarboxylate transporter 1, endogenous full-length prey
f (active fraction): 0.9
